3 molecules from patent US11680267B2, “Co-regulatory sequences based on tetracycline and Cumate” (Shenzhen Eureka Biotechnology Co., Ltd., priority 2020, dated 2023) can be followed below.

Holding throughout (format): cell-based
In data set [1] the test system is 293T-rtTA3G-CymR cells. Description: Luciferase fluorescence intensity assay, transient transfection, both DOX and Cumate vs DOX alone (Example 2). The note with it: for induced expression level: transient transfection, 24 hours after transfection. An excerpt:
The experiment described in the present Example is to study and verify the effect of the position and copy number of the CuO operator in the Tet-On and Cumate complex response element on the induced expression level and non-induced leaky expression level of the complex response element, and to optimize and confirm the optimal position and copy number of the CuO operator. In the present Example, based on the 7×TetO sequence in the TRE3G response element and the minimal promoter sequence #1 (SEQ ID NO: 25), the response elements TRE3GCuO14 (10-317 bp in SEQ ID NO: 8), TRE3GCuO30 (SEQ ID NO: 28), TRE3GCuO50 (SEQ ID NO: 23) and TRE3GCuO100 (10-403 bp in SEQ ID NO: 10) were designed by linking a CuO operator sequence at 10 bp to 100 bp downstream of the TATA box (at 14 bp, 30 bp, 50 bp and 100 bp downstream of the TATA box, respectively), and a Luciferase reporter gene sequence was linked downstream of the 3′ end of the above response elements, to construct plasmids 18BF251, 18BF252, 18BF235 and 18BF253. Further, in order to study the effect of multiple copies of CuO operators, 2, 4 and 6 copies of CuO operator sequences were respectively inserted at 50 bp downstream of the TATA box, to design the response elements TRE3GCuO2x (10-411 bp in SEQ ID NO: 11), TRE3GCuO4x (10-527 bp in SEQ ID NO: 12) and TRE3GCuO6x (10-643 bp in SEQ ID NO: 13), and then a Luciferase reporter gene sequence was linked downstream of 3′ end of the above response elements to construct plasmids 18BF254, 18BF255 and 18BF256. In 293T-rtTA3G-CymR cells stably expressing rtTA3G and CymR genes, the above plasmids were transiently transfected, and the optimal position and number of CuO operator were validated by measuring the luciferase […] value of samples added with both DOX and Cumate inducers and that of the control added with the DOX inducer only. The specific experimental methods were as follows:
(§1) 293T cells were seeded at 1.5E+06 cells per 60 mm culture dish, and cultured in DMEM (Sigam, D6429) complete medium supplemented with 10% FBS (ExCell, 11H116) at 37° C. and 5% CO 2. After 24 hours of culture, transfection was carried out according to the PEI method. During transfection, 500 μL of transfection reagent which contained 5.5 ug of total plasmid was added to each 60 mm culture dish, and the mass ratio of total plasmid to PEI MAX (Polysciences, 24765-1) was 1:4. The transfection was carried out according to the PEI method, wherein the amount of total plasmid was 5.5 μg. The transfection was performed with plasmids 19BF074:18BF019 at a molar ratio of 10:1 to obtain 293T-rtTAadv-CymR cells; and the transfection was performed with plasmids 19BF075:18BF019 at a molar ratio of 10:1 to obtain 293T-rtTA3G-CymR cells. The plasmid and PEI MAX were mixed uniformly, and then put into a culture dish after standing for 15 minutes. 3 hours after transfection, the medium was changed to a complete DMEM medium, and the transfection operation was completed. After 24 hours of transfection, the cells were digested with trypsin and all seeded in a 100 mm culture dish (Corning, 430167), and 200 μg/ml of hygromycin (Sangon Biotech A600230-0001) drug screening was performed for at least three passages. After the growth of cells under the pressure of drug screening was consistent with that of the original 293T cells, the following experiments were performed.
The 293T-rtTA3G-CymR cells were seeded in a 96-well plate (Corning 3916) at 2.5E+04 cells per well, and the medium was 100 microliters of DMEM complete medium. […]

Data set [2] deals with 293T-rtTA3G-CymR cells. The description is as above. The note with it: for induced expression level as % of the induced expression level for TREadv response element: 1 ug/ml DOX and 200 ug/ml Cumate; for ratio of induced/leaky expression level based on Cumate inducible expression system, relative to that for the TREadv response element: DOX and Cumate vs DOX only.
Another data set concerns 293T-rtTAadv-CymR cells. Description: Luciferase assay, transient transfection, DOX and Cumate vs no inducer (Example 3), rtTAadv cells. The method, then: as §1
(§2) In Tet-On inducible expression system, the induced transcription activity and the leaky transcription activity were comprehensively affected by the TetO operator linking sequence of the TRE response element and the minimal promoter sequence, as well as different mutants of the transactivator rtTA. In addition, the transport and stability of messenger ribonucleic acid may be enhanced by linking a spliceable intron sequence downstream of the 3′ end of the response element and upstream of the 5′ end of the regulated nucleic acid fragment of interest, but the induced transcription activity and leaky transcription activity of response element of the inducible expression system may also be affected. Based on this, the optimal design scheme of complex response element was determined in this Example based on the induced expression level and the ratio of induced/leaky expression level of Luciferase gene under the combination of the following conditions: (1) Tet-On and Cumate complex response elements TREadvCuO and TRE3GCuO designed based on the TREadv and TRE3G response element sequences; (2) whether an intron was linked; (3) being regulated by the transactivator rtTAadv or rtTA3G. A total of 8 design schemes were compared in this Example: TREadv (18BF232), TREadvCuO (18BF233), TRE3G (18BF234), TRE3GCuO (18BF235), TREadv-BGI (18BF240, wherein the response element was TREadv, and a human β-globulin intron was linked between the 3′ end of the response element and the 5′ end of the Luciferase gene), TREadvCuO-BGI (18BF241, wherein the response element was TREadvCuO, and a human β-globulin intron was linked between the 3′ end of the response element and the 5′ end of the Luciferase gene), TRE3G-BGI (18BF236, wherein the response element was TRE3G, and a human β-globulin intron was linked between the 3′ end of the response element and the 5′ end of the Luciferase gene) and TRE3GCuO-BGI (18BF237, wherein the response element was TRE3GCuO, and a human β-globulin intron was linked between the 3′ end of the response element and the 5′ end of the Luciferase gene). The promoter CMV-BGI (18BF229, wherein the promoter was CMV, and a human β-globulin intron was linked between the 3′ end of the CMV promoter and the 5′ end of the Luciferase gene) was used as a positive control. […]

For data set [3], the system named is 293T-rtTA3G-CymR cells. Description: Luciferase assay, transient transfection, DOX and Cumate vs no inducer (Example 3), rtTA3G cells. The note with it: 293T-rtTA3G-CymR cells. On the procedure: as §1, §2
Where [4] appears, read: 1 ug/ml DOX and 200 ug/ml Cumate.

B1: TRE3GCuO30: Tet-On (TRE3G) and Cumate complex response element, CuO 30 bp behind the TATA box (SEQ ID NO: 28) (nucleic acid)
DNA: TCCCTATCAGTGATAGAGAACGTATGAAGAGTTTACTCCCTATCAGTGATAGAGAACGTATGCAGACTTTACTCCCTATCAGTGATAGAGAACGTATAAGGAGTTTACTCCCTATCAGTGATAGAGAACGTATGACCAGTTTACTCCCTATCAGTGATAGAGAACGTATCTACAGTTTACTCCCTATCAGTGATAGAGAACGTATATCCAGTTTACTCCCTATCAGTGATAGAGAACGTATTAGGCGTGTACGGTGGGCGCCTATAAAAGCAGAGCTCGTTTAGTGAACCGTCAGATACAAACAGACCAGATTGTCTGTTTGTT
modifications: TRE3GCuO30 response element sequence
Turning to B1, in the data set on 293T-rtTA3G-CymR cells [1] (setting [4]), the “induced expression level as % of the induced expression level of TRE3G response element” value turned out to be 44.5% and the induced expression level stood at 3.06E+06 RLU. The “ratio of induced/leaky expression level based on Cumate inducible expression system, relative to that of TRE3G response element” value with 293T-rtTA3G-CymR cells [1] (DOX and Cumate vs DOX only) came out at 4.21 times.

B2: TREadvCuO32: Tet-On (TREadv) and Cumate complex response element, CuO 32 bp behind the TATA box (SEQ ID NO: 29) (nucleic acid)
DNA: TCCCTATCAGTGATAGAGAACGTATGTCGAGTTTACTCCCTATCAGTGATAGAGAACGATGTCGAGTTTACTCCCTATCAGTGATAGAGAACGTATGTCGAGTTTACTCCCTATCAGTGATAGAGAACGTATGTCGAGTTTACTCCCTATCAGTGATAGAGAACGTATGTCGAGTTTATCCCTATCAGTGATAGAGAACGTATGTCGAGTTTACTCCCTATCAGTGATAGAGAACGTATGTCGAGGTAGGCGTGTACGGTGGGAGGCCTATATAAGCAACCGGTGTTTAGTGAACCGTCAGATCTACAAACAGACCAGATTGTCTGTTTGTT
modifications: TREadvCuO32 response element sequence
For the molecule B2, in the data set with 293T-rtTA3G-CymR cells [1] (setting [4]), the induced expression level was 3.26+06 RLU. Besides, in the data set on 293T-rtTA3G-CymR cells [2], the “induced expression level as % of the induced expression level for TREadv response element” value amounted to 37.8% and the “ratio of induced/leaky expression level based on Cumate inducible expression system, relative to that for the TREadv response element” value is 4.97 times.

B3: TREadvCuO: Tet-On (7xTetO of TREadv) and Cumate complex response element, CuO 52 bp behind the TATA box (SEQ ID NO: 30) (nucleic acid)
DNA: TCCCTATCAGTGATAGAGAACGTATGTCGAGTTTACTCCCTATCAGTGATAGAGAACGATGTCGAGTTTACTCCCTATCAGTGATAGAGAACGTATGTCGAGTTTACTCCCTATCAGTGATAGAGAACGTATGTCGAGTTTACTCCCTATCAGTGATAGAGAACGTATGTCGAGTTTATCCCTATCAGTGATAGAGAACGTATGTCGAGTTTACTCCCTATCAGTGATAGAGAACGTATGTCGAGGTAGGCGTGTACGGTGGGAGGCCTATATAAGCAACCGGTGTTTAGTGAACCGTCAGATCGCCTGGAGACGCCATCATAATACAAACAGACCAGATTGTCTGTTTGTT
modifications: TREadvCuO52 response element sequence
On to B3, for which the “induced expression level as % of that of the corresponding TRE3G or TREadv single regulatory response element” value in the data set with 293T-rtTAadv-CymR cells (DOX and Cumate) turned out to be 36.3%. The induced/leaky expression ratio with 293T-rtTAadv-CymR cells (DOX and Cumate vs no inducer) is on record as 1345 times. Further, the “induced expression level as % of that of the single regulatory response element” value in the data set with 293T-rtTA3G-CymR cells [3] (DOX and Cumate) was found to be 40.3%. In the data set on 293T-rtTA3G-CymR cells [3] (DOX and Cumate vs no inducer), the induced/leaky expression ratio came out at 1915 times. Moreover, the induced expression level in the data set with 293T-rtTA3G-CymR cells [1] (setting [4]) came out at 4.88E+06 RLU. For the same molecule, in the data set on 293T-rtTA3G-CymR cells [2], the “induced expression level as % of the induced expression level for TREadv response element” value was found to be 53.4% and the “ratio of induced/leaky expression level based on Cumate inducible expression system, relative to that for the TREadv response element” value came to 3.23 times.
